Experimental findings from US20030026781A1, “Compositions and methods for regulating endogenous inhibitor of ATP synthase, including treatment for diabetes” (MitoKor, priority 1999, published 2003) are described below.

“Also recorded” adds a separate entry of the source. Like-named read-outs stand apart in the source and are kept apart here.

In assay [1] the target is T1, mitochondrial ATP synthase (ETC Complex V) in rat liver submitochondrial particles (Rattus norvegicus, UniProt P10719+P15999).
T1 construct: rat liver submitochondrial particles (SMP) prepared from male Sprague-Dawley rat livers; from tissue; host or cells: male Sprague-Dawley rat liver, submitochondrial particles (method of Walker et al. 1995)
Nature of the assay: Oligomycin-sensitive ATPase (ATP hydrolase) activity in rat liver submitochondrial particles (SMP). The assay is classed as biochemical. To be noted: read-out: IC50 for oligomycin-sensitive ATPase inhibition. On the procedure:
The IF1(42-58) polypeptide was also tested for its ability to inhibit the F0-F1-ATPase in rat ASMPs (alkaline submitochondrial particles) prepared as in the preceding Example. […] ATP hydrolase activity was expressed as the percent of detectable activity in the absence of added IF1-containing fusion protein, and the level of oligomycin-inhibitable activity was also determined (FIG. 8).
The effects of the IF1 peptides on ATPase activity were determined by assaying ATPase in rat liver submitochondrial particles (SMP) prepared from male Sprague-Dawley rat livers according to the method of Walker et al. (1995 Meth. Enzymol. 260:163-190). […] Louis, Mo., unless otherwise noted) for 10 min at room temperature. The mixtures were then added to assay buffer (50 mM Tris-HCl, 3.3 mM MgCl2, pH 8.0) in a 96-well plate and ATPase activity was initiated by the addition of 1 mM ATP, 1 mM phophoenolypyruvate, 3 U/ml pyruvate kinase, 10 U/ml lactate dehydrogenase and 0.3 mM NADH. Reactions were monitored by recording absorbance in “kinetic read” mode at 340 nm for 10 min at 30° C. in a termperature-controlled Spectromax Plus-384™ 96-well plate reader (Molecular Devices, Inc., Sunnyvale, Calif.) according to the manufacturer's instructions. In this mode, the plate reader recorded an absorbance value for each well at approximately nine-second intervals. A parallel set of reactions was set up identically except for the addition of 10 μg/ml oligomycin, to correct for the component of ATPase activity that was oligomycin-inhibitable.
Dose-response curves were generated for IF1 peptides 14-33 (SEQ ID NO:30), 14-47 (SEQ ID NO:29), 14-46 (SEQ ID NO:67), 14-45 (SEQ ID NO:66), 14-44 (SEQ ID NO:65), 14-43 (SEQ ID NO:64) and 14-42 (SEQ ID NO:63) by setting up SMP ATPase reactions as described above with serial dilutions of the IF1 peptides over a range of several orders of magnitude between 10^−4 and 10^2 μM (FIG. 12). Data were plotted and IC50 values were calculated using Prism software (GraphPad, San Diego, Calif.) according to the nianufacturer's instructions. […]

The subject of a further assay is INS-1 cells. Nature of the assay: Glucose-stimulated insulin secretion (GSIS) in INS-1 cells with tat.mito.14-47. The format is cell-based, rat. Conditions: 8 mM glucose, varying amounts of fusion protein, FIG. 13. On the procedure: The nucleic acid encoding a tat.mito.14-47 fusion protein was constructed essentially as described in Example 2. The tat.mito.14-47 fusion protein (SEQ ID NO:71) enhanced GSIS in INS-1 cells when used in the assay conditions described as follows. Briefly, INS-1 cells were seeded into 12-well plates containing RPMI media supplemented as described at 0.7×10^6 cells/well and cultured at 37° C., 5% CO2 for 2 days. Cells were preincubated in the presence or absence of varying amounts of tat.mito.14-47 or vehicle control in glucose-free RPMI media supplemented with 1% FCS for 1 hr at 37° C. in a humidified 5% CO2/95% air atmosphere. Cells were rinsed with glucose-free modified KRH buffer (134 mM NaCl, 3.6 mM KCl, 0.5 mM NaH2PO4, 0.5 mM MgCl2, 1.5 mM CaCl2, 10 mM HEPES, 5 mM NaHCO3, 0.1% BSA), incubated in the same buffer for 30 min at 37° C. in a humidified 5% CO2/95% air atmosphere, again in the presence or absence of varying amounts of tat.mito.14-47 or vehicle control. Then fresh modified KRH buffer containing 0.25 mM isobutylmethyl xanthine and 8 mM glucose was added, the cells were stimulated for 30 min at 37° C., 5% CO2 and then culture supernatants were collected. Insulin concentrations in the supernatants were measured by immunoasssay (Alpco ELISA Kit) and normalized to protein (Pierce/BCA Kit) according to the manufacturers' instructions.

B1: rat IF1: intact rat inhibitor protein of mitochondrial ATP synthase (SEQ ID NO:13), comparator for peptide 14-47 (protein, listed as Rattus norvegicus)
chain: MAGSALAVRARLGVWGMRVLQTRGFGSDSSESMDSGAGSIREAGGAFGKREKAEEDRYFREKTREQLAALKKHHEDEIDHHSKEIERLQKQIERHKKKIKYLKNSEH
For orientation: IC50 means the concentration at which inhibition is half-maximal. Regarding B1, the values for the concentration for half-maximal inhibition (IC50) in assay [1] (pH 6.5), in assay [1] (pH 7.25) and in assay [1] (pH 8) were 190 ± 24 nM, 420 ± 56 nM and > 800 nM, respectively.

B2: tat.mito.14-47: fusion protein SEQ ID NO:71: polyhistidine tag, tat, mitochondrial targeting sequence, IF1 fragment 14-47 (protein)
chain: MGGSHHHHHHGMASMTGGQQMGRDLYDDDDKDPSSGYGRKKRRQRRRGMAGSALAVRARLGVWGMRVLQTRGFSIREAGGAFGKREKAEEDRYFREKTREQLAALKK
modifications: Fusion protein
As for B2, the “effect on GSIS” value in the assay with INS-1 cells is on record as “enhanced GSIS; also recorded: further induced glucose stimulated insulin secretion in a dose dependent manner”.
